What all share (experiment): fluorescence polarization; FP with 3' 6-FAM RNA; PCBP1 RNA diluted to 50 nM in PCBP binding buffer; buffer composition, pH and temperature not in the material
In general terms: Fluorescence polarisation rises when a labelled molecule tumbles more slowly, as on binding a larger partner.

Data set [1] addresses T1, A1CF WT (human?, UniProt Q9NQ94 1-594).
T1 sequence: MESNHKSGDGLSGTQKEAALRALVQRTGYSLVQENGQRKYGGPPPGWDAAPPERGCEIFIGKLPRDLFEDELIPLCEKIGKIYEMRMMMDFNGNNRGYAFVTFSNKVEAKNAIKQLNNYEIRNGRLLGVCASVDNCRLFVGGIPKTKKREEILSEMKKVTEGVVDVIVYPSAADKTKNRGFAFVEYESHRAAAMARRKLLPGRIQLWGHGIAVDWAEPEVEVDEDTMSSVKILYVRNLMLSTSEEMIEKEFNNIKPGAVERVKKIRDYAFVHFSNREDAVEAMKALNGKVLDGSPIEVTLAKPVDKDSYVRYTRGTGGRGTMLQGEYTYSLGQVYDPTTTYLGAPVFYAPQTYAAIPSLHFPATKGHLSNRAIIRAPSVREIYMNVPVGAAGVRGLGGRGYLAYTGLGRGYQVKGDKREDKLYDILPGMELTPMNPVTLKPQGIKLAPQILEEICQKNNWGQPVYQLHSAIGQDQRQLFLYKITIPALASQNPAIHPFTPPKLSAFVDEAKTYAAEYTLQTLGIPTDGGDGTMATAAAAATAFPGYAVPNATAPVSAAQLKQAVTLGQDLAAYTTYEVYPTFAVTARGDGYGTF
The settings on record: protein: recombinant; label: 3' 6-FAM; single-stranded.

Data set [2] has as its target T2, A1CF E34K (human?, UniProt Q9NQ94 1-594, E34K).
T2 sequence: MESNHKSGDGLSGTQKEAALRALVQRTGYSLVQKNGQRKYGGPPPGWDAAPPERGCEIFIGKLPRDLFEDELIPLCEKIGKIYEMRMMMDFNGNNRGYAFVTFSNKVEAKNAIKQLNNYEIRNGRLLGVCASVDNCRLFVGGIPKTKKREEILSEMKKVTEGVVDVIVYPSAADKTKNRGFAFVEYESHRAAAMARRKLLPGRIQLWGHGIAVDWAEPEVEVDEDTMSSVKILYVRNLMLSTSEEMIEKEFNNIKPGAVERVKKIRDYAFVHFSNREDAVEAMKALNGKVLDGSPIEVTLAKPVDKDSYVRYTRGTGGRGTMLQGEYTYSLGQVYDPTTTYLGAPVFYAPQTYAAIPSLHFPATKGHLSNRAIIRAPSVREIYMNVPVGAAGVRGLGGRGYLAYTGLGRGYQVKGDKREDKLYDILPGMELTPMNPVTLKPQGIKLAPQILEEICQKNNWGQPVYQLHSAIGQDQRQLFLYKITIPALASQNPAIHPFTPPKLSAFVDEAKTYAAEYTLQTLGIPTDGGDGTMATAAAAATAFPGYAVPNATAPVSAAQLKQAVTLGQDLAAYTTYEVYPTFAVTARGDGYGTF
The settings on record: protein: recombinant; label: 3' 6-FAM; single-stranded.

The target of data set [3] is T3, KHDRBS2 WT (UniProt Q5VWX1 1-349).
T3 sequence: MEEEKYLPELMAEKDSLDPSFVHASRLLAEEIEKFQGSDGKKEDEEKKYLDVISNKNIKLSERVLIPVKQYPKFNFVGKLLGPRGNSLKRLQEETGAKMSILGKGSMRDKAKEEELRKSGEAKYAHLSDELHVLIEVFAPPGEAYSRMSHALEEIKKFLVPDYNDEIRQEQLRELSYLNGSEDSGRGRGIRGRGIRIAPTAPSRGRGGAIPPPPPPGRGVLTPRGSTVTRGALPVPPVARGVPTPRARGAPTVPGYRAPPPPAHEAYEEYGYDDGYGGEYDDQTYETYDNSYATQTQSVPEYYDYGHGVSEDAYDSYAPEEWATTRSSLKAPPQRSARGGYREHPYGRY
The following applies: protein: recombinant; chain copies: 2; label: 3' 6-FAM; single-stranded.

Data set [4] has as its target T4, KHDRBS2 R168C (UniProt Q5VWX1 1-349, R168C).
T4 sequence: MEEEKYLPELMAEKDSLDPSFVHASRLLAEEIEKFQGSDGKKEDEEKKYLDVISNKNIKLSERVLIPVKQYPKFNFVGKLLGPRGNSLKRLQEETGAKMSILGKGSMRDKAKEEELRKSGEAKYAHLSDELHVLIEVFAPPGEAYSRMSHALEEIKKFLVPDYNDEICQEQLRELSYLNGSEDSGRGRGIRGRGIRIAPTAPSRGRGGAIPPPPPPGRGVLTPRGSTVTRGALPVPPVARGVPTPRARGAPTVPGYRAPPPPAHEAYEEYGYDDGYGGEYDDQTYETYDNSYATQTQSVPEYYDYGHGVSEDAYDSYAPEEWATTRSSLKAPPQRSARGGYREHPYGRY
The following applies: protein: recombinant; chain copies: 2; label: 3' 6-FAM; single-stranded.

In the case of AUUAAAUUAAAUUU (ssRNA) [AU-rich RNA (A1CF and KHDRBS2)], the binding signal in data set [1] is 1 fold (reference); in data set [2] it was roughly 2 fold affinity vs WT; in data set [3] it was 1 fold (reference); in data set [4], roughly 2 fold affinity vs WT.

The values are drawn from paper PMC7946914, “easyCLIP analysis of RNA-protein interactions incorporating absolute quantification”.
